Source: US8247352B2, “Method of inhibiting ethylene production in plants” (The Regents of the University of California, priority 2005, dated 2012)

Experiments:
Test in all cases: Initial velocity assays (rate of oxygen consumption) with ACC or substrate analogs
Assay type in all cases: biochemical, Lycopersicon esculentum
Conditions in all cases: other: O2 consumption, 25° C., pH 7.2, [Ascorbate] = 30 mM, [O2] = 258 μM, [CO2/bicarbonate] = 20 mM
[1] = substrate: C[C@@H](N)C(=O)O
Method: (§1) Initial velocities were measured by the rate of oxygen consumption at 25° C., pH 7.2, using a YSI model 5300 biological oxygen monitor as previously described (Thrower 2001) with minor modifications. Standard reaction mixture (1 ml) contained 100 mM MOPS, pH 7.2, 20 mM NaHCO3, 100 mM NaCl, 20 mM sodium ascorbate, 0.1 mg/ml BSA, and ACC or substrate analog at various concentrations. Oxygen concentrations were kept at atmospheric concentration and determined using the oxygen monitor that was calibrated with air saturated water (258 μM oxygen at 25° C.). Reactions were initiated with 2 μL ACCO reconstituted with equimolar Fe(NH4)2(SO4)2. Data from initial velocity experiments with varying substrate concentrations were fitted to the Michaelis-Menton equation using the program Kalideograph.
(§2) The dependence of the initial velocity of oxygen consumption by ACCO:Fe(II) on the concentration of ACC or several substrate analogs was determined (Table 1). Either cyclic substrate analogs (including inhibitor Me-ACC, ACC-NH2, or ACC-OMe) or acyclic substrate analogs (AIB, D-Ala, or Gly) were used. […] Ascorbate and oxygen concentrations were kept constant at 30 mM and ˜258 μM, respectively.

[2] = substrate: CC(C)(N)C(=O)O
Method: as §1, §2

[3] = substrate: NC1(C(=O)O)CC1
Method: as §1, §2

B1: ACC Oxidase (ACCO, ACO1) (Solanum lycopersicum) (protein)
chain: MENFPIINLEKLNGDERANTMEMIKDACENWGFFELVNHGIPHEVMDTVEKMTKGHYKKCMEQRFKELVASKGLEAVQAEVTDLDWESTFFLRHLPTSNISQVPDLDEEYREVMRDFAKRLEKLAEELLDLLCENLGLEKGYLKNAFYGSKGPNFGTKVSNYPPCPKPDLIKGLRAHTDAGGIILLFQDDKVSGLQLLKDEQWIDVPPMRHSIVVNLGDQLEVITNGKYKSVLHRVIAQTDGTRMSLASFYNPGSDAVIYPAKTLVEKEAEESTQVYPKFVFDDYMKLYAGLKFQAKEPRFEAMKAMESDPIASA
notes: made in house; host or cells: Escherichia coli BL21 (DE3)pLysS
**Q.** For B1, which Km [1] is on record?
**A.** 4.42 ± 0.49 mm

**Q.** And the kcat [1]?
**A.** 0.497 ± 0.015 s⁻¹

**Q.** What about the Km [2] of the same protein?
**A.** 0.92 ± 0.29 mm

**Q.** And the kcat [2]?
**A.** 0.368 ± 0.0267 s⁻¹

**Q.** And the Km [3]?
**A.** 0.099 ± 0.018 mm

**Q.** What about the kcat [3] of the same protein?
**A.** 0.607 ± 0.0233 s⁻¹
